Legend:
[1] = target: T1, B.1.1.7変異株(アルファ株又は英国株)のSタンパク質のRBDタンパク質 (SARS-CoV-2 B.1.1.7変異株, UniProt P0DTC2 322-536); experiment: ELISA, RBD coated at 2 μg/ml, Expi293 culture supernatant, HRP anti-human IgG
T1 construct: range 322-536

[2] = target: T2, B.1.351変異株(ベータ株又は南ア株)のSタンパク質のRBDタンパク質 (SARS-CoV-2 B.1.351変異株, UniProt P0DTC2 322-536); experiment: as above
T2 construct: range 322-536

B1: 抗体NCV2SG53 (antibody, V domains shown)
VH: QVQMVESGGGLVRPGGSLRLSCAASGFTFSDYYMSWIRQAPGKGLEWISYISSSGSSMNYADSVKGRFTISRDNAKNSLFLQMNSLRAEDTAVYYCAREFDLTKIIMVPPYWGQGTLVTVSS
VL: AIQLTQSPSSLSASVGDRVTITCRASQGISSYLAWYQQKPGKAPKVLIYAASTLQSGVPSRFSGSGSGTDFTLTISSLQPEDFATYYCQQLKSYPLTFGGGTKVEIT
binding result [1]: binds | binding result [2]: binds
